This series deals with Escherichia coli TOP10. In words: shrunken log2 fold change of peptide-encoding DNA abundance (4.5 h post-induction vs induction); higher = less antimicrobial activity (less host growth inhibition). To be noted: time post-induction: 4.5 h; library: site-saturation at positions 5, 18, 19, 20.
RRIRCRPPRLPRPRPRPAGFPRP: the “shrunken log2 fold change” value was 0.1.

For the sequence RRIRLRPPRLPRPRPRPDYNPRP, the “shrunken log2 fold change” value was -0.657.

On to RRIRVRPPRLPRPRPRPLTNPRP, for which the “shrunken log2 fold change” value is -0.447.

Consider RRIRERPPRLPRPRPRPYCQPRP, for which the “shrunken log2 fold change” value is -0.0159.

With RRIRHRPPRLPRPRPRPIYMPRP, the “shrunken log2 fold change” value was -0.0111.

For RRIRTRPPRLPRPRPRPDKAPRP, the “shrunken log2 fold change” value was -0.0271.

As to RRIRHRPPRLPRPRPRPIMRPRP, the “shrunken log2 fold change” value was -0.0864.

As for RRIRQRPPRLPRPRPRPYRIPRP, the “shrunken log2 fold change” value was -0.111.

Take RRIRARPPRLPRPRPRPFDRPRP: the “shrunken log2 fold change” value was 0.0972.

In the case of RRIRYRPPRLPRPRPRPYKVPRP, the “shrunken log2 fold change” value is -0.0075.

For RRIRGRPPRLPRPRPRPCPQPRP, the “shrunken log2 fold change” value was 0.654.

Take RRIRRRPPRLPRPRPRPSENPRP: the “shrunken log2 fold change” value is -0.0437.

With RRIRVRPPRLPRPRPRPMADPRP, the “shrunken log2 fold change” value was -0.0473.

With RRIRKRPPRLPRPRPRPMHGPRP, the “shrunken log2 fold change” value was 0.272.

In the case of RRIRARPPRLPRPRPRPNHDPRP, the “shrunken log2 fold change” value is -0.141.

As for RRIRHRPPRLPRPRPRPWDPPRP, the “shrunken log2 fold change” value was -0.243.

With RRIRLRPPRLPRPRPRPSCGPRP, the “shrunken log2 fold change” value is -0.583.

For the sequence RRIRLRPPRLPRPRPRPEEVPRP, the “shrunken log2 fold change” value is -0.00242.

With RRIRHRPPRLPRPRPRPLVWPRP, the “shrunken log2 fold change” value was determined as 0.482.

As to RRIRQRPPRLPRPRPRPHSKPRP, the “shrunken log2 fold change” value was -0.328.

RRIRQRPPRLPRPRPRPTYWPRP: the “shrunken log2 fold change” value was -0.247.

Turning to RRIRHRPPRLPRPRPRPGWTPRP, the “shrunken log2 fold change” value was -0.00563.

As to RRIRARPPRLPRPRPRPLTMPRP, the “shrunken log2 fold change” value was 0.637.

Consider RRIRVRPPRLPRPRPRPVLKPRP, for which the “shrunken log2 fold change” value is -0.193.

On to RRIRVRPPRLPRPRPRPMPSPRP, for which the “shrunken log2 fold change” value amounted to 0.333.

For the sequence RRIRERPPRLPRPRPRPHAIPRP, the “shrunken log2 fold change” value is -0.234.

In the case of RRIRFRPPRLPRPRPRPTLIPRP, the “shrunken log2 fold change” value is -0.19.

As for RRIRPRPPRLPRPRPRPGMRPRP, the “shrunken log2 fold change” value stood at 0.852.

Take RRIRARPPRLPRPRPRPDCFPRP: the “shrunken log2 fold change” value came out at 0.715.

Take RRIRWRPPRLPRPRPRPERVPRP: the “shrunken log2 fold change” value was 0.447.

In the case of RRIRHRPPRLPRPRPRPNSCPRP, the “shrunken log2 fold change” value is -0.089.

As for RRIRIRPPRLPRPRPRPLVFPRP, the “shrunken log2 fold change” value was -0.348.

As to RRIRWRPPRLPRPRPRPPEEPRP, the “shrunken log2 fold change” value was determined as 1.26.

For RRIRMRPPRLPRPRPRPYDKPRP, the “shrunken log2 fold change” value was -0.351.

Regarding RRIRMRPPRLPRPRPRPVNYPRP, the “shrunken log2 fold change” value was -0.0244.

For the sequence RRIRGRPPRLPRPRPRPYIRPRP, the “shrunken log2 fold change” value is -0.111.

With RRIRTRPPRLPRPRPRPCVRPRP, the “shrunken log2 fold change” value stood at 0.116.

As for RRIRHRPPRLPRPRPRPIHHPRP, the “shrunken log2 fold change” value was -0.216.

On to RRIRVRPPRLPRPRPRPMAFPRP, for which the “shrunken log2 fold change” value is -0.00965.

Regarding RRIRFRPPRLPRPRPRPHHNPRP, the “shrunken log2 fold change” value is -0.754.

As for RRIRHRPPRLPRPRPRPYMHPRP, the “shrunken log2 fold change” value is -0.448.

For RRIRDRPPRLPRPRPRPDAYPRP, the “shrunken log2 fold change” value came to 0.0301.

Consider RRIRDRPPRLPRPRPRPNLFPRP, for which the “shrunken log2 fold change” value was determined as 0.0627.

For the sequence RRIRLRPPRLPRPRPRPNTNPRP, the “shrunken log2 fold change” value is -0.576.

With RRIRDRPPRLPRPRPRPNWVPRP, the “shrunken log2 fold change” value was determined as 0.0019.

Regarding RRIRHRPPRLPRPRPRPCLYPRP, the “shrunken log2 fold change” value is -0.057.

Regarding RRIRIRPPRLPRPRPRPLAKPRP, the “shrunken log2 fold change” value is -0.346.

As to RRIRTRPPRLPRPRPRPTPNPRP, the “shrunken log2 fold change” value is 0.293.

Regarding RRIRCRPPRLPRPRPRPQQFPRP, the “shrunken log2 fold change” value was -0.217.

As to RRIRHRPPRLPRPRPRPKDEPRP, the “shrunken log2 fold change” value came to 0.0349.

(Values after the supplement of paper PMC9112550, “Optimization of the antimicrobial peptide Bac7 by deep mutational scanning” (BMC Biology, 2022).)
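Further: peptides expressed intracellularly from a pBAD plasmid library in pooled LB shake-flask culture, induced with 0.3% L-arabinose, DNA abundance read by NGS, three biological replicates, DESeq2 with apeglm shrinkage.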
